Source: the DeepSol protein solubility set

assay: soluble on expression in E. coli; label from the status in PepcDB or PDB records

| Sequence | soluble on expression in E. coli |
| --- | --- |
| GPGSMLEPIFEEITCLFASRNPKHALQGLSDGLRNAATGVGLGLAGVVAGTYGGAKEGGLGGMAKGFGAGMAGFVGLTGYGAYAGVRQIVRGVGNTRSAVSEVSKGEAYWDSNAQAWVRVNLACDFERLPQTDEDLLGTARKAYEKAKKDGTLPTTLNDSAEGGGASASSATTGAGAASVPQGTDTGETKPAAAEPVNYYAFLGVESAATPSEIRKAYTRKALEMHPDKNPNDPNATIKFQELNKIYNVLSHEGTRATYDRYGTVDPMNVPEMTGNPMKELLGAAFLEALVGPLHFFLVFEGGVLFTAEMKRELHARRRLRVAKNLVSWLDNGASGFESAQLALRDAVSTALGPVFVSYVAEEYHLASRQQLHGSNWKREMDSWYSSWATSASSLWHWTTMGARTARRAFVDKNLGEEDILRVLAVANERDVRQIVLQACRLVLFDMSVTPAQRQQRAMRLEELSVMAMKEVAREVASRERIGASEATAAAAEKGTTTKTPADTNATAPPFS | soluble |
| MKLKLYLIPLLASGIILSACSSTTSQVISSLSSAQKYFEANKGELNKNNVINILKDGYNSDPNKTVNALLAGWKYTLMDQKLLENNLDPSRFKNTFGPNKNKDDVTPNISEKGLFLNETFTGLGSQIAEVFNVQKQIVSGFSYSWTSPKSFKVNIHIKMEGMINEKSKETIKSFLSNKDSNGSNSVEESEYTGDKAKFTADFIFSYTPPTGGTRSLTDKSFDVITNMINFPADVKIDVNTSHNKLNELLEKNDQVKRMKSRTFNGRNIDLLPFFYYALL | soluble |
| SLHGELDKIYETLALAERRGPGPVDLLLCCGDFQAVRNEADLRCMAVPPKYRHMQTFYRYYSGEKKAPVLTLFIGGNHEASNHLQELPYGGWVAPNIYYLGLAGVVKYRGVRIGGISGIFKSHDYRKGHFECPPYNSSTIRSIYHVRNIEVYKLKQLKQPIDIFLSHDWPRSIYHYGNKKQLLKTKSFFRQEVENNTLGSPAASELLEHLKPTYWFSAHLHVKFAALMQHQAKDKGQTARATKFLALDKCLPHRDFLQILEIEHDPSAPDYLEYDIEWLTILRATDDLINVTGRLWNMPENNGLHARWDYSATEEGMKEVLEKLNHDLKVPCNFSVTAACYDPSKPQT | not soluble |
| MGSDKIHHHHHHMSFKKVDLSRYQFDGAQASSIGDLTQLDAADKQRLLYAGIDVNQQNLAGSFMHMNHSGVHCTSRQEGLEILDIKQALDTYHGLPDYFWKLVDRNKDEYTRAADEHLHGGYFIRARAGAKIEAPVQSCLFIKGNGVGQNVHNVVVVEEGAEMHIITGCATAHDTRSVAHLGISEFYVHKGGKLTFTMIHNWGEEAAVRPRSAGYLEEDAVFLSNYVLLKPVTDLQMYPTITLGGRGSVARFNSVIVAPTGSYVDTGNRILLEAPDTRGEIIARTMTTGGTIINRGHIAGHAVPARGHLECKGLILGGGVIHAIPELEGTQDGVELSHEAAVGKIAQEEIEYLMARGLDEDEATSTIVRGFLNVDIMGLPEELEKAVEEQINQLDAGDAM | not soluble |
| MKKQPGQQPLRSLSLTSAAKSLEEVEPEDDSKKGEPHAKAAGFGRGGGGGKRLPAARSTPMVIPNQVAAMPVQMTGFVQLATNNILSAIAHTNSLMVVQCIEPLEIFTGFETPNRYVVHDMYCRPLLYCMERSNVFARQYHGNNRKLSASTLDSCRRCSPMRTLTLFTFQWTCRQS | soluble |
| MIGILKKVFDVNQRQIKRMQKTVEQIDALESSIKPLTDEQLKGKTLEFKERLTKGETVDDLLPEAFAVVREAATRVLGMRPYGVQLMGGIALHEGNISEMKTGEGKTLTSTLPVYLNALTGKGVHVVTVNEYLAQRDANEMGQLHEFLGLTVGINLNSMSREEKQEAYAADITYSTNNELGFDYLRDNMVLYKEQCVQRPLHFAIIDEVDSILVDEARTPLIISGQAQKSTELYMFANAFVRTLENEKDYSFDVKTKNVMLTEDGITKAEKAFHIENLFDLKHVALLHHINQALRAHVVMHRDTDYVVQEGEIVIVDQFTGRLMKGRRYSEGLHQAIEAKEGVEIQNESMTLATITFQNYFRMYEKLSGMTGTAKTEEEEFRNIYNMNVIVIPTNKPIIRDDRADLIFKSMKGKFNAVVEDIVNRHKQGQPVLVGTVAIETSELISKMLTRKGVRHNILNAKNHAREADIIAEAGMKGAVTIATNMAGRGTDIKLGDDIKNIGLAVIGTERHESRRIDNQLRGRAGRQGDPGVTQFYLSMEDELMRRFGSDNMKAMMDRLGMDDSQPIESKMVSRAVESAQKRVEGNNYDARKQLLQYDDVLRQQREVIYKQRQEVMESENLRGIIEGMMKSTVERAVALHTQEEIEEDWNIKGLVDYLNTNLLQEGDVKEEELRRLAPEEMSEPIIAKLIERYNDKEKLMPEEQMREFEKVVVFRVVDTKWTEHIDAMDHLREGIHLRAYGQIDPLREYQMEGFAMFESMIASIEEEISRYIMKAEIEQNLERQEVVQGEAVHPSSDGEEAKKKPVVKGDQVGRNDLCKCGSGKKYKNCCGIGK | not soluble |
| MGSDKIHHHHHHQEGRSDPLEGFNRTMFNFNYDVLDPYVVRPAAVAWRDYVPTPARNGLGNFFNNLEEPATMVNYFVEGKPYKAMIHFNRFFLNTLLGMGGLIDVASMANPKLAKEESRRFGSTLGNYGVGYGPYVVLPGYGSVTPREDGGGVADTLYPMLSYLTFWMSAGKWAIEGLETRAQLLDSDGLLRNSSDPYLMIREAYFQRHDFLASDGQIAPQQNPNAAAIEDSLDEIDSAK | not soluble |
| GSKFLNKRLSEREFDPDIHCGVIDLDTKKPCTRSLTCKTHSLTQRRAVQGRRKRFDVLLAEHKNKTREKELIRH | soluble |
| MGSDKIHHHHHHMERFPYEKLPESELKELKELGRLCRGDILKMTYIANSGHPGGSMSSIDLYLTVFKYAKLRPVDDPARDRIVISHGHTSPGVYAAMARLGFVDLDEVLAGFRHPASVFEGHVTRGVGIIDWTTGNLGQGLSAGLGFALASRFTGKDYHVFVLMSDAEQAKGQVAEARRVAKKYGVTNLTVIIDYNDAQISGRARDVMPVNIKENYLADGWRVIEIDGHDYEQIYLALKEAVEDELNPVAIIAKTVMGKGVSFMENEVKYHGKPLNREELEKALAELGIENDVDVYIEKRKQLPVEKHKKVYKTYPIKIDTGEPITYTSPTDNRSAFGKAILDLVKKNVNNPETTPIVAVDCDLKGSVKLDLLDKEFPERLLEVGVQEHNAAAMAGALSAEGVITFFADFGVFGISETYNQHRLNAINGTNLKVVVTHCGLNVGEDGKTHHGLDYVSGPMNWYGFKVIVPGDPNQTDRVVRYAAKEYGNFVIAMGRSKLPIILDENGKPFFGEGYTFEYGKIDVVRKGDDAVIITYGSTLCEAVNAADELKKEGVNVAVLNVSCPVDLDIETLKMVDGKPVLVVEDHNVFTGLGSFLGTTLLENGIIPKKYVRVGVPEFAVSGSYTMLYKLYGLDKDGIISRLREML | not soluble |
| MAHHHHHHMSMKGSKNMLSPLVGNIYNNVYDHKELKMKSINEQNNMGSNNYNINYVNNNNSTLSNNNHSKQNLCYNNFSSHSPSINKDSIHEEKKNNFYEQHNYIDENATHHTMEEENYKNFKNSKNYEHTIDEDVMQNEYSNIIKDNHLKKKKKKKNIHHLNNKDINNTNLNYETNEQVLIDLPKNHLLNKLTTSIIHSINPHLISEYTHEDITKRTNKISTLKKKKKKKKIEREEIYESDVDNTNGEDNTNDVDNTNDEDNTNDEDNTNDGDNEQIHYHKQFDDQIQKQKNKQNKQKKEYKEFDVYETKGYIPLSNEHKQNKSVCFLDNHVKYYTQQNNVPYEKNIIYENNLNDHQAHSYYNNTLNQFTPNSDILNYNNYINKEYIQGIYNTNNYNIKQDSVYEPNEQVMFMSPQEEKYIYMNASPNNIIRNNDMVFYSGQLDNEQMNININNNNNINNNDNNINSSSSVNDGCFNLHLNNMNNIFNTCTNTQNKQKTHKSFFCNSSAKNVINNENNVKNNKTEILIYKNDKTNNYQNNNQTKQNIQSNNHYNNNNNNNGNHINKFRFFTPTSNNVFVRTRSLTPNTYQKKKKNSFFACSPLKDINLNRQKSLPPQLYTTQDITQPIYTHDISYNLSNKNNIIQNDPYNNIQNITTTLSYPLVNSNFVHLYPYQNSNTNNQIKKIENFNVSKNYMNESSTQTSTETSSKSSKDTSLWNTQIHLLNEKIKNMKTKMENITKEKNEVNELCKMYKVIKNHINVNV | not soluble |
| MSLQLSNFLELERADTFENVERVQNAVATEQSYLDYIVQDWACWDDTYQFIEDKNPEYIRVDLQNQTLSGINVNVMIFVNNSGKVVYVKSVNTSTAEEAPVPRKLLAMIEDGGLLTEGENDSISGFVLLDEDPMFIACHPILTTKYEGPSRGTLIFGRYFDDALLESFKKVTRSSLLMYRADEEMPQDFQNKIKNFSQNSDNIVVDPLNKNQIAGYFGLKDIKGDIALILRADFPREGHHHHHH | soluble |
| MKNNIRFDLSDYLIHFFRDVNLETGSHIYLPEHCGFNNQHHACFIDAKYLLRLSLRSHKIFSSWSYRNGQRTVYGDSPVVCFTDMPIAAYLETGVRRLERNEKIGLYAIVLPKEQMFNYGARPVIYGLDQHNNARCSQGRNGERILDETALPLIEQYRYVTYVPGKIDWTHEREWRWPYRGDINNFLNHIKEYGIPENIESTPGFDFRSSEISGAGIIVPFAEDIPTVAHDILTLIDRGVIGRNTFKFIIAVESLQSWTQLSEPGALLSCINDNTFEFESFFDLSASKVKNYADSINDYVSELYSKKDFLNDSYAMEFGNAWVWIHDNQSQVVRALLQAGMIKVNKEGRYLLDVNLASVDWPLRRKEAFASHVAGWLKHRFDIEAGRYSVRGKDDYDAIPSYETPLKDQHPFYNHTVNVDW | not soluble |
| MLQEIPTTTPSLREARPCVLETERLTLRKPVLADVQAIASLANDRRVVEMTRRMPFPYTRDDAARFVTALPKSSDSVFLIEAEDLEPIGLVGVDWSDRDAPELGYWLGVQHWGNGYATEAARAVIDFTFEVHGAKQMISGARVINPASRNVLEKCGFQWTGVELHRFESIGSSTPVDCFRLTRGVWSSLKKWGTTKRRC | not soluble |
| MKEIYLPLHHGKAPHWLLSRMKKLAKPIVKLIVLEYGEREFLERLSNPIFFQSLSNVLGFDWNSSGVTTVLTGVLKAVINNEEFDIRIAGGKGGNALKTPEEIMNYSEQIGADGEKLVEFSRLAAKADNAALIDGYSLYHHAVIFTPRYFTVIQQGMNETERMARRYHWNVYSSVPELENVHEGIITERRENEVVNMLSDISRDAKRLCVDIVRDGSFRRDYERMISVLRWRKGLRVPKKLDWKVVERAYNLQPERFEELLLIRGFGRETIRALALVAEIIYNTEYDKTDPAKYCFAVGGKDGVPFPVRRDIYDEIIEFMRETVKQAEIGDFEKKKMLERLSRYGCDCQERRD | soluble |
| MTELSAFPITRKWPAKHPERLQLYSLPTPNGVKVSIMLEEIGLAYEAHKVSFDNDDQLSPEFISLSANNKIPAILDPNGPGGQPLALFESGAILQYLAEKSGQLLSQDPAQRYQTLQWLMFQMGGIGPMFGQVGFFHFFAGKEYEDKRPRDRYVNESKRLLGVLDRHLKGRQWMAEEYSIADIAIFPWVRNLVERYNARDLVGFDQFKEVQRVLANFLERPAVQRGLKIPG | not soluble |
| MGSDKIHHHHHHEEPVGEFLPGQVESEENIEGIVTGAYAVLDGYYASDAINSGCSNWQFGDVVSDDAYKGGGGTGDQNQIHLMEIFNANPTGIDFEARWAALYEGIKRCNQAIRLLNGSEVKNKEQRLAEMRFLRGHYYFNLKIIYNQIPWIDETLVDPNEYNKKSNIEFSSDQLWEKILEEFSAAYKVLPESQADYGRPTKMAARAYMAKVYLYQSKWKECLEACDEVIQSGKYELFPDFRNVFLPENDNCSEIIFAIQLSINDGSPNNENGSYGDRLLPPGGPYPVYGFLRPTQNLVNAYKTDVKGLPYNDGKDVSENDYVDVRLDHTLARPNIPFMDVQLYDWTPREASVYGPYSPKKRLVSLNSTYYSPIWPYVNALNFYVIRYADLLLWRAEAAIETGDLETGRKYINMIRERAKNTQHVKTMDQSQDAANYKVGVYDEPFKSKNEAVQALRMERRLEMAHEGIRFFDLVRWGVADEVINAYIAKEKVFRSHLQNAHFVKGKHEYFPIPQSMIDICGTEVMKQNPGY | not soluble |
